± gives the standard deviation.
Test: collision cross section of modified peptide (TIMS, N2, iRT-aligned); higher = larger / more extended gas-phase ion
Summary of the method: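 On a timsTOF Pro/HT (dda-PASEF, nitrogen, ~2.4 mbar), synthetic peptide pools were analysed after a 120-min nanoflow C18 separation at 60 °C and identified in MaxQuant. Three reference ions served for 1/K0 calibration, with run-wise alignment to the median iRT peptide deviation. Collision cross section comes from the Mason-Schamp equation, using the most abundant feature per charge state averaged over 1–3 technical replicates.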

[1] = charge state: 3, modification: Dimethyl (K)
[2] = charge state: 2, modification: Glutarylation
[3] = charge state: 3, modification: Glutarylation
[4] = charge state: 2, modification: GlyGly (K)
[5] = charge state: 2, modification: Malonyl
[6] = charge state: 2, modification: Methyl (K)
[7] = charge state: 3, modification: Methyl (K)
[8] = charge state: 2, modification: Succinyl
[9] = charge state: 3, modification: Trimethyl (K)
[10] = charge state: 2, modification: hydroxyisobutyryl
[11] = charge state: 2, modification: Acetyl (K)
[12] = charge state: 2, modification: Biotin
[13] = charge state: 2, modification: Butyryl
[14] = charge state: 2, modification: Crotonyl
[15] = charge state: 2, modification: Dimethyl (K)
[16] = charge state: 2, modification: Formyl
[17] = charge state: 2, modification: Citrullination (R)
[18] = charge state: 3, modification: Methyl (R)
[19] = charge state: 2, modification: Hydroxyproline
[20] = charge state: 3, modification: Citrullination (R)
[21] = charge state: 2, modification: Methyl (R)
[22] = charge state: 3, modification: Hydroxyproline

## GADFLVTEVENGGSLGSKK [_GADFLVTEVENGGSLGSK(Dimethyl (K))K_]
[1]
  collision cross section: 539.44 Å²

## GADFLVTEVENGGSLGSKK [_GADFLVTEVENGGSLGSK(Gluratylation)K_]
[2]
  collision cross section: 481.44 ± 2 Å²
[3]
  collision cross section: 556.42 Å²

## GADFLVTEVENGGSLGSKK [_GADFLVTEVENGGSLGSK(GlyGly (K))K_]
[4]
  collision cross section: 505.48 Å²

## GADFLVTEVENGGSLGSKK [_GADFLVTEVENGGSLGSK(Malonyl)K_]
[5]
  collision cross section: 475.75 ± 0.97 Å²

## GADFLVTEVENGGSLGSKK [_GADFLVTEVENGGSLGSK(Methyl (K))K_]
[6]
  collision cross section: 494.56 Å²
[7]
  collision cross section: 538.26 Å²

## GADFLVTEVENGGSLGSKK [_GADFLVTEVENGGSLGSK(Succinyl)K_]
[8]
  collision cross section: 480.22 ± 1.1 Å²
Charge state: 3, modification: Succinyl
  collision cross section: 554.56 Å²

## GADFLVTEVENGGSLGSKK [_GADFLVTEVENGGSLGSK(Trimethyl (K))K_]
[9]
  collision cross section: 548.47 ± 1.1 Å²

## GADFLVTEVENGGSLGSKK [_GADFLVTEVENGGSLGSK(hydroxyisobutyryl)K_]
[10]
  collision cross section: 478.5 ± 1.3 Å²
Charge state: 3, modification: hydroxyisobutyryl
  collision cross section: 553.89 Å²

## GAEKTEVAEPR [_GAEK(Acetyl (K))TEVAEPR_]
[11]
  collision cross section: 370.22 ± 7.6 Å²

## GAEKTEVAEPR [_GAEK(Biotin)TEVAEPR_]
[12]
  collision cross section: 393.63 Å²

## GAEKTEVAEPR [_GAEK(Butyryl)TEVAEPR_]
[13]
  collision cross section: 380.97 ± 1.3 Å²

## GAEKTEVAEPR [_GAEK(Crotonyl)TEVAEPR_]
[14]
  collision cross section: 370.18 ± 9 Å²

## GAEKTEVAEPR [_GAEK(Dimethyl (K))TEVAEPR_]
[15]
  collision cross section: 374.44 ± 1.3 Å²
[1]
  collision cross section: 439.06 ± 1.6 Å²

## GAEKTEVAEPR [_GAEK(Formyl)TEVAEPR_]
[16]
  collision cross section: 371.26 ± 0.89 Å²

## GAEKTEVAEPR [_GAEK(Gluratylation)TEVAEPR_]
[2]
  collision cross section: 362.79 ± 0.71 Å²

## GAEKTEVAEPR [_GAEK(GlyGly (K))TEVAEPR_]
[4]
  collision cross section: 384.75 ± 0.88 Å²
Charge state: 3, modification: GlyGly (K)
  collision cross section: 448.79 ± 1.6 Å²

## GAEKTEVAEPR [_GAEK(Malonyl)TEVAEPR_]
[5]
  collision cross section: 372.62 ± 0.63 Å²

## GAEKTEVAEPR [_GAEK(Methyl (K))TEVAEPR_]
[6]
  collision cross section: 369.74 ± 0.22 Å²
[7]
  collision cross section: 441.71 ± 4.3 Å²

## GAEKTEVAEPR [_GAEK(Propionyl)TEVAEPR_]
Charge state: 2, modification: Propionyl
  collision cross section: 373.13 ± 6.5 Å²

## GAEKTEVAEPR [_GAEK(Succinyl)TEVAEPR_]
[8]
  collision cross section: 372.49 ± 0.4 Å²

## GAEKTEVAEPR [_GAEK(Trimethyl (K))TEVAEPR_]
[9]
  collision cross section: 447.07 ± 3.3 Å²

## GAEKTEVAEPR [_GAEK(hydroxyisobutyryl)TEVAEPR_]
[10]
  collision cross section: 376.1 ± 9 Å²

## GAPGGRGAQLSVPSPAR [_GAPGGR(Citrullination (R))GAQLSVPSPAR_]
[17]
  collision cross section: 412.31 ± 0.55 Å²

## GAPGGRGAQLSVPSPAR [_GAPGGR(Methyl (R))GAQLSVPSPAR_]
[18]
  collision cross section: 494.35 ± 0.66 Å²

## GAPGPQGPPGPPGK [_GAPGPQGPPGPP(Hydroxyproline)GK_]
[19]
  collision cross section: 359.87 ± 0.26 Å²

## GARLPGPVSSAR [_GAR(Citrullination (R))LPGPVSSAR_]
[17]
  collision cross section: 355.27 ± 6 Å²
[20]
  collision cross section: 446.63 Å²

## GARLPGPVSSAR [_GAR(Methyl (R))LPGPVSSAR_]
[21]
  collision cross section: 360.12 ± 1.2 Å²
[18]
  collision cross section: 474.74 ± 8.7 Å²

## GATVTRGVPPPPTVR [_GATVTR(Citrullination (R))GVPPPPTVR_]
[17]
  collision cross section: 398.42 ± 2.1 Å²
[20]
  collision cross section: 501.66 Å²

## GATVTRGVPPPPTVR [_GATVTR(Methyl (R))GVPPPPTVR_]
[18]
  collision cross section: 512.38 ± 1.6 Å²

## GDAGEPGR [_GDAGEP(Hydroxyproline)GR_]
[19]
  collision cross section: 292.85 ± 1.1 Å²

## GDAGEPGRPGSPGK [_GDAGEP(Hydroxyproline)GRPGSPGK_]
[22]
  collision cross section: 446.53 ± 1.3 Å²

## GDAGEPGRPGSPGK [_GDAGEPGRPGSP(Hydroxyproline)GK_]
[19]
  collision cross section: 357.84 ± 0.8 Å²

## GDIGETGVPGAEGPR [_GDIGETGVPGAEGP(Hydroxyproline)R_]
[19]
  collision cross section: 384.38 ± 0.27 Å²

## GDKGDAGEPGR [_GDKGDAGEP(Hydroxyproline)GR_]
[19]
  collision cross section: 331.51 ± 0.55 Å²
[22]
  collision cross section: 414.61 ± 0.42 Å²

## GDNGSVGEPGPK [_GDNGSVGEP(Hydroxyproline)GPK_]
[19]
  collision cross section: 344.87 ± 1.1 Å²

## GDPGLIGPK [_GDP(Hydroxyproline)GLIGPK_]
[19]
  collision cross section: 312.86 ± 1.3 Å²

## GDQGEPGPSGNPGK [_GDQGEPGPSGNP(Hydroxyproline)GK_]
[19]
  collision cross section: 343.56 ± 0.79 Å²

## GDRGEIGPPGPR [_GDRGEIGPP(Hydroxyproline)GPR_]
[19]
  collision cross section: 368.56 ± 1.9 Å²
[22]
  collision cross section: 424.63 ± 1.2 Å²

## GDTGLPGPQGIPGGVGSPGR [_GDTGLPGPQGIP(Hydroxyproline)GGVGSPGR_]
[19]
  collision cross section: 430.06 ± 1.1 Å²

## GDTGLPGPQGIPGGVGSPGR [_GDTGLPGPQGIPGGVGSP(Hydroxyproline)GR_]
[22]
  collision cross section: 499.06 ± 39 Å²

## GDYDLNAVR [_GDY(Nitro (Y))DLNAVR_]
Charge state: 2, modification: Nitro (Y)
  collision cross section: 344.3 ± 0.72 Å²

## GDYDLNAVR [_GDY(Phospho (Y))DLNAVR_]
Charge state: 2, modification: Phospho (Y)
  collision cross section: 348.87 ± 0.066 Å²

## GEAGPTGPQGEPGVR [_GEAGPTGPQGEP(Hydroxyproline)GVR_]
[19]
  collision cross section: 382.58 ± 0.36 Å²

## GEAGPTGPQGEPGVRGIR [_GEAGPTGPQGEP(Hydroxyproline)GVRGIR_]
[22]
  collision cross section: 499.21 ± 1.2 Å²

## GEGGFGGRGGGR [_GEGGFGGR(Citrullination (R))GGGR_]
[17]
  collision cross section: 329.76 ± 0.38 Å²

## GEGGFGGRGGGR [_GEGGFGGR(Methyl (R))GGGR_]
[21]
  collision cross section: 345.55 ± 1 Å²
[18]
  collision cross section: 413.1 Å²

## GEIGPPGPR [_GEIGPP(Hydroxyproline)GPR_]
[19]
  collision cross section: 319.92 ± 1.1 Å²

## GEKGDPGLIGPK [_GEKGDP(Hydroxyproline)GLIGPK_]
[19]
  collision cross section: 375.69 ± 1.9 Å²
[22]
  collision cross section: 437 ± 1.3 Å²

## GEKGLPGLAGDHGEFGEK [_GEKGLP(Hydroxyproline)GLAGDHGEFGEK_]
[22]
  collision cross section: 558.56 ± 0.81 Å²

## GEKGNPGVGTQGPR [_GEKGNP(Hydroxyproline)GVGTQGPR_]
[19]
  collision cross section: 371.11 ± 0.55 Å²
[22]
  collision cross section: 431.33 ± 1.3 Å²

## GEPGIPAIPGIR [_GEPGIP(Hydroxyproline)AIPGIR_]
[19]
  collision cross section: 346.11 ± 0.79 Å²

## GEPGIPAIPGIRGPK [_GEPGIP(Hydroxyproline)AIPGIRGPK_]
[19]
  collision cross section: 382.81 ± 0.54 Å²
[22]
  collision cross section: 511.46 ± 1.2 Å²

## GEPGLPGHPGK [_GEPGLP(Hydroxyproline)GHPGK_]
[19]
  collision cross section: 337.36 ± 0.3 Å²

## GEPGQGLRGLQGPPGK [_GEPGQGLRGLQGPP(Hydroxyproline)GK_]
[19]
  collision cross section: 408.26 ± 1.5 Å²
[22]
  collision cross section: 445.73 ± 1.3 Å²

## GEQGEPGAPGIR [_GEQGEP(Hydroxyproline)GAPGIR_]
[19]
  collision cross section: 349.07 ± 0.25 Å²

## GEQGEPGAPGIRTGIQGLK [_GEQGEPGAP(Hydroxyproline)GIRTGIQGLK_]
[19]
  collision cross section: 450.73 ± 0.4 Å²
[22]
  collision cross section: 502.77 ± 1.3 Å²

## GERGFPGYPGPK [_GERGFP(Hydroxyproline)GYPGPK_]
[19]
  collision cross section: 370.65 ± 1.8 Å²

## GERGFPGYPGPK [_GERGFPGYP(Hydroxyproline)GPK_]
[22]
  collision cross section: 456.01 ± 1.2 Å²

## GERGPPGPPGK [_GERGPPGPP(Hydroxyproline)GK_]
[19]
  collision cross section: 326.03 ± 0.88 Å²
[22]
  collision cross section: 407.49 ± 18 Å²

## GERGPPGPPGR [_GERGPP(Hydroxyproline)GPPGR_]
[19]
  collision cross section: 333.05 Å²

## GERGPPGPPGR [_GERGPPGP(Hydroxyproline)PGR_]
[22]
  collision cross section: 409.61 ± 0.34 Å²

## GERGVPGER [_GERGVP(Hydroxyproline)GER_]
[19]
  collision cross section: 328.27 ± 0.79 Å²
[22]
  collision cross section: 402.04 Å²

## GETASKLQSEISR [_GETASK(Acetyl (K))LQSEISR_]
[11]
  collision cross section: 386.09 ± 2 Å²
Charge state: 3, modification: Acetyl (K)
  collision cross section: 464.45 ± 0.086 Å²

## GETASKLQSEISR [_GETASK(Biotin)LQSEISR_]
[12]
  collision cross section: 422.42 ± 2 Å²
Charge state: 3, modification: Biotin
  collision cross section: 475.24 ± 0.34 Å²

## GETASKLQSEISR [_GETASK(Butyryl)LQSEISR_]
[13]
  collision cross section: 390.84 ± 0.85 Å²
Charge state: 3, modification: Butyryl
  collision cross section: 467.14 ± 2.9 Å²

## GETASKLQSEISR [_GETASK(Crotonyl)LQSEISR_]
[14]
  collision cross section: 388.79 ± 0.79 Å²
Charge state: 3, modification: Crotonyl
  collision cross section: 466.94 ± 1.6 Å²

## GETASKLQSEISR [_GETASK(Dimethyl (K))LQSEISR_]
[15]
  collision cross section: 398.3 ± 1.1 Å²
[1]
  collision cross section: 460.41 ± 2.6 Å²

## GETASKLQSEISR [_GETASK(Formyl)LQSEISR_]
[16]
  collision cross section: 382.6 ± 1.7 Å²

## GETASKLQSEISR [_GETASK(Gluratylation)LQSEISR_]
[2]
  collision cross section: 403.5 ± 0.6 Å²
[3]
  collision cross section: 470.57 Å²

From the supplement of paper PMC10598134
